Assay results: the supplement of paper PMC7877785
± gives the uncertainty stated by the source.

Experiment: self-splicing fitness, log relative to wild type (ln ratio); higher = more splicing; Tetrahymena group I intron in knt gene, E. coli kanamycin selection, DiMSum; sequences stand for … in CUCUCU…GGAGGGAAAAGUUAUCAGGCAUGCACCUGGUAGCUAGUCUUUAAACCAAUAGAUUGCAUCGGUUUAAAAGGCAAGACCGUCAAAUUGCGGGAAAGGGGUCAACAGCCGUUCAGUACCAAGUCUCAGGGGAAACUUUGAGAUGGCCUUGCAAAGGGUAUGGUAAUAAGCUGACGGACAUGGUCCUAACCACGCAGCCAAGUCCUAAGUCAACAGAUCUUCUGUUGAUAUGGAUGCAGUUCACAGACUAAAUGUCGGUCGGGGAAGAUGUAUUCUUCUCAUAAGAUAUAGUCGGACCUCUCCUUAAUGGGAGCUAGCGGAUGAAGUGAUGCAACACUGGAGCCGCUGGGAACUAAUUUGUAUGCGAAAGUAUAUUGAUUAGUUUUGGAGUACUCGUGGUCG
In short: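 A randomised library covering all eight P1ex-region intron nucleotides was built with the intron in the knt kanamycin-resistance gene on pET-22b(+) and held in E. coli BL21(DE3). Cells were grown overnight at 37°C or 30°C on LB agar, with or without 25 μg/mL kanamycin, plus 100 μg/mL carbenicillin, 50 μM IPTG and 0.2% rhamnose, and pooled colonies were amplicon-sequenced on an Illumina HiSeq 2500. DiMSum fitness is the error-weighted combination of wild-type-normalised replicate fold changes, kanamycin versus none.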

Sequence | self-splicing fitness (ln) (30 °C) | self-splicing fitness (ln) (37 °C)
GCUCAGCAAUAUUACGCAUG | -1.66 ± 0.1 | -1.49 ± 0.1
GCUCAGCAAUAUUACGCCAU | -3.28 ± 0.48 | -2.26 ± 0.36
GCUCAGCAAUAUUACGCCCU | -1.18 ± 0.19 | 0.764 ± 0.18
GCUCAGCAAUAUUACGCCGG | -2.03 ± 0.15 | -0.855 ± 0.17
GCUCAGCAAUAUUACGCCUC | -1.49 ± 0.2 | 0.48 ± 0.22
GCUCAGCAAUAUUACGCCUG | -2.66 ± 0.26 | -2.42 ± 0.32
GCUCAGCAAUAUUACGCGAA | -0.998 ± 0.11 | -0.98 ± 0.12
GCUCAGCAAUAUUACGCGCG | -1.03 ± 0.071 | -0.194 ± 0.091
GCUCAGCAAUAUUACGGAUC | -0.0202 ± 0.09 | -0.0789 ± 0.11
GCUCAGCAAUAUUACGGAUU | -0.53 ± 0.051 | 0.362 ± 0.075
GCUCAGCAAUAUUACGGCCC | -1.13 ± 0.078 | -0.029 ± 0.1
GCUCAGCAAUAUUACGGCUU | -0.675 ± 0.066 | -0.385 ± 0.071
GCUCAGCAAUAUUACGGGAU | -1.16 ± 0.097 | -0.195 ± 0.11
GCUCAGCAAUAUUACGGUCC | -0.681 ± 0.065 | 0.158 ± 0.087
GCUCAGCAAUAUUACGUAAG | -0.791 ± 0.043 | -0.374 ± 0.067
GCUCAGCAAUAUUACGUAGU | -0.46 ± 0.059 | -0.522 ± 0.075
GCUCAGCAAUAUUACGUGCC | – | -2.56 ± 0.23
GCUGAGCAAUAUUACGAAAG | -1.75 ± 0.2 | -1.46 ± 0.23
GCUGAGCAAUAUUACGACUA | -1.55 ± 0.22 | -1.72 ± 0.21
GCUGAGCAAUAUUACGAGAU | -3.06 ± 0.34 | -2.09 ± 0.31
GCUGAGCAAUAUUACGAGCG | -0.822 ± 0.23 | -0.795 ± 0.21
GCUGAGCAAUAUUACGAGUA | -2.25 ± 0.31 | -1.72 ± 0.35
GCUGAGCAAUAUUACGAUAC | -1.15 ± 0.35 | 0.491 ± 0.22
GCUGAGCAAUAUUACGAUCC | -1.34 ± 0.15 | 0.743 ± 0.24

Sequence | self-splicing fitness (ln) (30 °C) | self-splicing fitness (ln) (37 °C)
GCUGAGCAAUAUUACGCAUC | -1.72 ± 0.26 | -0.374 ± 0.33
GCUGAGCAAUAUUACGCAUU | -2.67 ± 0.13 | -1.63 ± 0.2
GCUGAGCAAUAUUACGCCUG | -1.28 ± 0.23 | –
GCUGAGCAAUAUUACGCGUG | -1.54 ± 0.11 | -0.878 ± 0.13
GCUGAGCAAUAUUACGCUCG | -2.7 ± 0.36 | -0.729 ± 0.26
GCUGAGCAAUAUUACGGAAC | -2.25 ± 0.3 | -0.857 ± 0.3
GCUGAGCAAUAUUACGGACG | -0.688 ± 0.1 | -0.674 ± 0.11
GCUGAGCAAUAUUACGGACU | -2.6 ± 0.36 | -1.36 ± 0.24
GCUGAGCAAUAUUACGGUAA | -3.07 ± 0.29 | -2.44 ± 0.23
GCUGAGCAAUAUUACGGUAU | -2.63 ± 0.2 | -2.41 ± 0.2
GCUGAGCAAUAUUACGGUCC | -2.99 ± 0.28 | -0.889 ± 0.26
GCUGAGCAAUAUUACGGUCG | -2.59 ± 0.17 | -2.24 ± 0.22
GCUGAGCAAUAUUACGGUUA | -1.74 ± 0.14 | -0.208 ± 0.1
GCUGAGCAAUAUUACGUAUA | -3.69 ± 0.26 | -2.22 ± 0.29
GCUGAGCAAUAUUACGUCAC | -2.4 ± 0.37 | -1.66 ± 0.36
GCUGAGCAAUAUUACGUGUU | -3.4 ± 0.2 | -2.37 ± 0.21
GCUGAGCAAUAUUACGUUCC | -1.48 ± 0.2 | -1.84 ± 0.35
GCUUAGCAAUAUUACGAAUA | -2.05 ± 0.25 | -0.645 ± 0.18
GCUUAGCAAUAUUACGAAUG | -1.79 ± 0.1 | -1.33 ± 0.13
GCUUAGCAAUAUUACGAGAU | -1.36 ± 0.14 | -1.02 ± 0.12
GCUUAGCAAUAUUACGAUCC | -0.0566 ± 0.1 | 0.226 ± 0.13
GCUUAGCAAUAUUACGCACC | -0.796 ± 0.13 | 0.115 ± 0.16
GCUUAGCAAUAUUACGCUGU | -2.25 ± 0.18 | -1.25 ± 0.18
GCUUAGCAAUAUUACGGAUG | -1.71 ± 0.14 | -1.05 ± 0.13

Sequence | self-splicing fitness (ln) (30 °C) | self-splicing fitness (ln) (37 °C)
GCUUAGCAAUAUUACGGAUU | -1.15 ± 0.1 | -0.911 ± 0.11
GCUUAGCAAUAUUACGGCGU | -0.354 ± 0.1 | -0.748 ± 0.11
GCUUAGCAAUAUUACGGGCG | -1.44 ± 0.082 | -0.621 ± 0.098
GCUUAGCAAUAUUACGGUUG | -3.95 ± 0.18 | -1.91 ± 0.12
GCUUAGCAAUAUUACGUACC | -0.204 ± 0.2 | 1.1 ± 0.21
GCUUAGCAAUAUUACGUAUC | -1.32 ± 0.083 | 0.415 ± 0.093
GCUUAGCAAUAUUACGUCAG | -2.36 ± 0.22 | –
GCUUAGCAAUAUUACGUGAG | -1.45 ± 0.07 | -1.2 ± 0.071
GCUUAGCAAUAUUACGUGCG | -1.23 ± 0.09 | -0.6 ± 0.12
GCUUAGCAAUAUUACGUGGG | -1.53 ± 0.093 | -1.72 ± 0.1
GCUUAGCAAUAUUACGUGGU | -2.81 ± 0.15 | -1.93 ± 0.16
GCUUAGCAAUAUUACGUUCA | -1.01 ± 0.15 | -1.21 ± 0.17
GCUUAGCAAUAUUACGUUGC | -2.46 ± 0.15 | -0.535 ± 0.12
GGAAAGCAAUAUUACGAAUA | -2.36 ± 0.22 | -1.19 ± 0.19
GGAAAGCAAUAUUACGAAUG | -3.53 ± 0.29 | -0.816 ± 0.25
GGAAAGCAAUAUUACGACAC | -0.204 ± 0.15 | -0.206 ± 0.2
GGAAAGCAAUAUUACGAUAA | -1.32 ± 0.14 | -0.198 ± 0.16
GGAAAGCAAUAUUACGAUUG | -3.56 ± 0.28 | -1.82 ± 0.23
GGAAAGCAAUAUUACGCACC | -1.43 ± 0.21 | –
GGAAAGCAAUAUUACGCACG | -1.16 ± 0.19 | 0.0479 ± 0.17
GGAAAGCAAUAUUACGCACU | -1.35 ± 0.22 | -1.57 ± 0.3
GGAAAGCAAUAUUACGCAGC | -2.07 ± 0.22 | -1.53 ± 0.23
GGAAAGCAAUAUUACGCGCA | -0.291 ± 0.16 | -0.139 ± 0.17
GGAAAGCAAUAUUACGGAGG | -3.5 ± 0.24 | -2.31 ± 0.21

Sequence | self-splicing fitness (ln) (30 °C) | self-splicing fitness (ln) (37 °C)
GGAAAGCAAUAUUACGGGGA | -2.87 ± 0.15 | -2.9 ± 0.26
GGAAAGCAAUAUUACGGGGC | -3.54 ± 0.28 | -0.864 ± 0.21
GGAAAGCAAUAUUACGGGUA | -1.86 ± 0.17 | -1.32 ± 0.15
GGAAAGCAAUAUUACGGUGA | -1.01 ± 0.15 | -0.6 ± 0.16
GGAAAGCAAUAUUACGGUGG | -1.84 ± 0.16 | -1.53 ± 0.16
GGAAAGCAAUAUUACGUAGC | -2.63 ± 0.22 | -2.34 ± 0.23
GGAAAGCAAUAUUACGUCGU | -0.732 ± 0.093 | -0.254 ± 0.12
GGAAAGCAAUAUUACGUUUC | -3.04 ± 0.21 | -2.5 ± 0.28
GGAAAGCAAUAUUACGUUUU | -3.05 ± 0.14 | -2.18 ± 0.18
GGACAGCAAUAUUACGACGC | -0.126 ± 0.065 | 0.658 ± 0.11
GGACAGCAAUAUUACGACGU | -0.177 ± 0.06 | 0.587 ± 0.075
GGACAGCAAUAUUACGAGUC | -4.31 ± 0.2 | -2.75 ± 0.15
GGACAGCAAUAUUACGAUUC | -0.338 ± 0.063 | 0.353 ± 0.078
GGACAGCAAUAUUACGCACA | -0.778 ± 0.09 | 0.0888 ± 0.1
GGACAGCAAUAUUACGCAGG | -1.45 ± 0.1 | -0.578 ± 0.11
GGACAGCAAUAUUACGCCCG | -0.653 ± 0.24 | -0.591 ± 0.28
GGACAGCAAUAUUACGCCGU | -4.23 ± 0.46 | -3.05 ± 0.26
GGACAGCAAUAUUACGCGCC | -2.93 ± 0.2 | –
GGACAGCAAUAUUACGCGGA | -0.693 ± 0.081 | 0.416 ± 0.074
GGACAGCAAUAUUACGCGUU | -3.68 ± 0.16 | -2.62 ± 0.2
GGACAGCAAUAUUACGGCAA | -1.32 ± 0.12 | -0.645 ± 0.12
GGACAGCAAUAUUACGGCCA | -0.721 ± 0.077 | -0.225 ± 0.1
GGACAGCAAUAUUACGGGCU | -1.89 ± 0.14 | -0.458 ± 0.13
GGACAGCAAUAUUACGGGGG | -2.84 ± 0.13 | -3.18 ± 0.22
